Laboratory results as given in paper doi:10.1101/2025.01.07.631770, “Backbone and Sidechain ^1H, ^15N and ^13C Resonance Assignments of a Multidrug Efflux Membrane Protein using Solution and Solid-State NMR” (bioRxiv, 2025).

Biological target: the molecule itself
Assay: solid-state NMR (13C-detected MAS, 2D NCA; two sets of peaks); S64V-EmrE in POPC proteoliposomes, 25:1 lipid/EmrE monomer, pH 5.8; 1.1 GHz, MAS 25 kHz, sample temperature 10 ± 5 °C

B1: S64V-EmrE (natural protein, E. coli, UniProt P23895 1-110, looked up)
chain: MNPYIYLGGAILAEVIGTTLMKFSEGFTRLWPSVGTIICYCASFWLLAQTLAYIPTGIAYAIWVGVGIVLISLLSWGFFGQRLDLPAIIGMMLICAGVLIINLLSRSTPH
notes: also called EmrE mutant S64V
B1: binds.
